# Test results published in patent publication US20260049134A1 (UNIVERSITY OF FLORIDA RESEARCH FOUNDATION, published 2026).
# T1: CADM1, endogenous in H929 multiple myeloma cells (human, UniProt Q9BY67 45-442)
# T1 construct: Native protein on H929 cells (flow cytometry, siRNA knockdown) and in H929 lysates (IP/MS); RPMI-8226 cells were used for sorting with HW-97; also called IGSF4A
# T1 sequence: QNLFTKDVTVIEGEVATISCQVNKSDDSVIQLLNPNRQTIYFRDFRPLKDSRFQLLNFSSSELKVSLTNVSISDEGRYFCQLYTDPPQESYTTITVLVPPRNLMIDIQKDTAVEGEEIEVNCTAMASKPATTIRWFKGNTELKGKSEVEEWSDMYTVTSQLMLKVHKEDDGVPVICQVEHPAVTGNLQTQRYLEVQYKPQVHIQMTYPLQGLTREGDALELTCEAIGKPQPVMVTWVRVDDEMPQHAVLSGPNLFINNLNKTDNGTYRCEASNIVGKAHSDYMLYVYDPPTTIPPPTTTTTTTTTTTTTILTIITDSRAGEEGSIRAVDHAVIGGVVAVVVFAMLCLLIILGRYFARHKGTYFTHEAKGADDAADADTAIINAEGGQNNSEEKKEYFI
# Legend:
# [1] = target: T2, PTPRG, endogenous in H929 multiple myeloma cells (human, UniProt P23470 20-1445); assay: flow cytometry, H929 + NT Green siRNA; None 1.35
# T2 construct: Native protein on H929 cells (flow cytometry, siRNA knockdown) and in H929 lysates (IP/MS); also called phosphatase receptor type γ
# [2] = target: T3, ICAM1-Fc (R&D Systems) (human, UniProt P05362 28-480); assay: ELISA on coated ICAM1-Fc
# T3 construct: Bought; also called ICAM-1/CD54; not shown: Fc of the bought fusion protein
# Method: Recombinant purified ECDs (50-150 ng) of each putative target protein were coated, incubated with 150 ng of the indicated primary antibody, and binding was detected using a peroxidase-conjugated anti-human Fab secondary antibody. Heatmap represents averages of technical triplicates. (8B) Target validation via siRNA knockdown. H929 cells were transfected with siRNA pools targeting the putative antibody targets ICAM1, CADM1, and PTPRG. Cells were then subjected to cognate IgG binding analysis via flow cytometry. (NT, non-targeting siRNA).
# ELISA ELISA was conducted as described previously. Briefly, 50-150 ng of antigen was coated overnight in half-area 96-well plates at 4° C., blocked with 3% BSA at 37° C. for 1 h, and 150 ng of chimeric rabbit/human IgG1 was added, incubating for 2 h at 37° C. […] After incubating at 37° C. for 15 min-1 h (depending on intensity of controls), data were acquired using a SpectraMax M5 plate reader (Molecular Devices).
# [3] = target: T1, CADM1, endogenous in H929 multiple …; assay: flow cytometry, H929 + vehicle; None 2.74
# T2 sequence (P23470 20-1445 limits assumed): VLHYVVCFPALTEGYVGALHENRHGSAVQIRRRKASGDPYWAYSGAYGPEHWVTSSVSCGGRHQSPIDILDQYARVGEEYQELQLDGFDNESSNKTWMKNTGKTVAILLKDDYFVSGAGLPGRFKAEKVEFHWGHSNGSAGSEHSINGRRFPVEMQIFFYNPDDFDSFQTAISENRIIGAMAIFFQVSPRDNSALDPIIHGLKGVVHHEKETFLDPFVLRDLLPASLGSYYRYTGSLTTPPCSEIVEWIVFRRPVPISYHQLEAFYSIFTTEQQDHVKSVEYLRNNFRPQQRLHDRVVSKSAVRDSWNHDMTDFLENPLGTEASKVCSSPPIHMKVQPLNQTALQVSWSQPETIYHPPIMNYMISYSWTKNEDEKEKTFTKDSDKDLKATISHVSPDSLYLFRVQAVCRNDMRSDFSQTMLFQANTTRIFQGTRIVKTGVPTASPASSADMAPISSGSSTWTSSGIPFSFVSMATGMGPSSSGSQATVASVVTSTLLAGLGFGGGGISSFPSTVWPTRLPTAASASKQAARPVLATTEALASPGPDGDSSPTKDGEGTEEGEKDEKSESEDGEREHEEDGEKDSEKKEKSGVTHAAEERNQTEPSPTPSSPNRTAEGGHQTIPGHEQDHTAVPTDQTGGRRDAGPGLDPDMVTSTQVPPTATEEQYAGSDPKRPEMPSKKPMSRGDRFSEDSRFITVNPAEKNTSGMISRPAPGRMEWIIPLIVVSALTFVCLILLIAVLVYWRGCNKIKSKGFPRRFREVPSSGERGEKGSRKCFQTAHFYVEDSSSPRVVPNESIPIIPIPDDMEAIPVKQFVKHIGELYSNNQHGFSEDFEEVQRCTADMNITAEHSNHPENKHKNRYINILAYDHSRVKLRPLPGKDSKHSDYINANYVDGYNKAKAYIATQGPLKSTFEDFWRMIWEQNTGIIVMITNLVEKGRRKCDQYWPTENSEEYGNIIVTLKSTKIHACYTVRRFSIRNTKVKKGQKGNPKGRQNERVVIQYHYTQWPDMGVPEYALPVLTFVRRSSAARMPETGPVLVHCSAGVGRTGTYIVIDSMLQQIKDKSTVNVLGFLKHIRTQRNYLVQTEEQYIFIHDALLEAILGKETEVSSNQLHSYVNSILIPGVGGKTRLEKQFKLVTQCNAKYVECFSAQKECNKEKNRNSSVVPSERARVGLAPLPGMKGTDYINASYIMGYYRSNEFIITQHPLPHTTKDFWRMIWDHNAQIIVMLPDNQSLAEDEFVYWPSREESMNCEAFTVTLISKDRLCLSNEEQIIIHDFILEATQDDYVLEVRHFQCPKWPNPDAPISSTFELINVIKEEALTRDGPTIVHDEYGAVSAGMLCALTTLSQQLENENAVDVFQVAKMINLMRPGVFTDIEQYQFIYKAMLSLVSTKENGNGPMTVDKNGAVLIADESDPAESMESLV
# T3 sequence (P05362 28-480): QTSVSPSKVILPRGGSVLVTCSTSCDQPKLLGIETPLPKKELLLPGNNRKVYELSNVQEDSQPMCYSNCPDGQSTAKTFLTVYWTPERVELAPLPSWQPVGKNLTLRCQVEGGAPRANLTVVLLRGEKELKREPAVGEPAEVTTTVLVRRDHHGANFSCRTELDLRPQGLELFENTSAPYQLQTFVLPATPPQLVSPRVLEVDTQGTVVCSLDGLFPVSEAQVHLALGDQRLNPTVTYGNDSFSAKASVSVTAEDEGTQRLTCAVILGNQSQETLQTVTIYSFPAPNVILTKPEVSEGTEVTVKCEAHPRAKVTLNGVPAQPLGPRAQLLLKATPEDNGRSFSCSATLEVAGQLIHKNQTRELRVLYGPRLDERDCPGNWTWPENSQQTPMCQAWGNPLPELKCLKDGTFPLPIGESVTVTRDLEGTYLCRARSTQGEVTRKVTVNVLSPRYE
binder,measurement,setting,value
"TH9-0022 (antibody, human IgG1, kappa, L234A L235A, V domains shown, also called TH9-022; negative control) VH: QSLEESGGRLVTPGTPLTLTCTVSGFSLSSYAMNWVRQAPGKGLEWIGIINSYGSTYYASWAKGRFTISKTSTTVDLKITSPTTEDTATYFCARVTYDSYGYGYAPYGMDLWGPGTLVTVSS VL: LVMTQTPSSTSNAVGGTVTIKCQASQSIGNVLAWYQQKPGQPPKLLIYAASTLASGVPSRVGGSRSGTEYTLTISGVQREDAATYYCLGSDSDSDIAFGGGTELEILR",Cells stained (%),[1],1.86%
same,binding result,[2],no binding (tested: 150 ng IgG1 per well)
same,Cells stained (%),[3],2.62%
